Assay results from patent publication US20220387586A1 (Hoffmann-La Roche, published 2022).

T1: LAG3 on cells (recombinant CHO cells expressing Lag3) (human, UniProt P18627 29-525)
T1 sequence: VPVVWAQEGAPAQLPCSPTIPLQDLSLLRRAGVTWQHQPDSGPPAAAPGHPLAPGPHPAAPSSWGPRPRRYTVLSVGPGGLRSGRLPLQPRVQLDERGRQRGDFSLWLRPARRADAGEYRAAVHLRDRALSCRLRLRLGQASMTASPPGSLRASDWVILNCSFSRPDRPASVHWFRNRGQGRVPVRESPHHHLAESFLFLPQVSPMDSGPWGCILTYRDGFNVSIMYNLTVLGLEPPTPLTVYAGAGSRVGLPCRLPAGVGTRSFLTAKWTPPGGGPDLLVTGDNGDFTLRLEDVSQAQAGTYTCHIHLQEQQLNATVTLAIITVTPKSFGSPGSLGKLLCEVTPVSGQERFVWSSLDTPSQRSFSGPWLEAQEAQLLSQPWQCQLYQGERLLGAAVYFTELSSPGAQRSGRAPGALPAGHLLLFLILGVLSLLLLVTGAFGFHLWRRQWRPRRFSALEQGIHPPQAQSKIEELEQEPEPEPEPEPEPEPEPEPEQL

T2: biotinylated-Lag3 (UniProt P18627 23-450, limits assumed, biotinylated)
T2 construct: Probably a human LAG3 ECD construct; also called Lag3 (MHCII/ELISA)
T2 sequence (looked up): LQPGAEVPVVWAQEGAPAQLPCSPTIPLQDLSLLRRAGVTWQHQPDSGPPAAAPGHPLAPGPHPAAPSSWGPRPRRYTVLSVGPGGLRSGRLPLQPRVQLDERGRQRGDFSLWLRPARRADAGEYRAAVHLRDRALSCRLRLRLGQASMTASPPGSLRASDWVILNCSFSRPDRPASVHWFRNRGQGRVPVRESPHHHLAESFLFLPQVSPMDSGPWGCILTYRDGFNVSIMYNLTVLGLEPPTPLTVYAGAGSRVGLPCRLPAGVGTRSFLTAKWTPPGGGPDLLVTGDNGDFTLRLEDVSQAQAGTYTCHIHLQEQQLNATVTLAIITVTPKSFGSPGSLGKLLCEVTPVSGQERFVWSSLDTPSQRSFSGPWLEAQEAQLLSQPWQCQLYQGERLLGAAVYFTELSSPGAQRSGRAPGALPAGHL


What was measured:
cynomolgus LAG3 on cells = target: T3, cynomolgus LAG3 on cells (cynomolgus); assay: flow cytometry on activated cynomolgus PBMC, 10 µg/ml (only 2nd Ab (hu): 7.62)
T3 construct: whole, on cells; also called cyno-LAG-3; cynoLAG3
Procedure: Thus, cynomolgus peripheral blood mononuclear cells (PBMC) were prepared from fresh cynomolgus blood and were then activated by CD3/CD28 pre-treatment (1 μg/ml) for 2-3 days. […] After staining, cells were washed two times with PBS/2% FCS and analyzed on a FACS Fortessa (BD).

[1] = target: T4, biotinylated cynoPD1-ECD-Biotin (cynomolgus, UniProt B0LAJ3 25-170, biotinylated; the site and any Avi or His tag are not stated in the passages shown); assay: ELISA on coated cynoPD1-ECD-Biotin
T4 construct: also called cyPD1
T4 sequence (B0LAJ3 entry or part of it limits assumed): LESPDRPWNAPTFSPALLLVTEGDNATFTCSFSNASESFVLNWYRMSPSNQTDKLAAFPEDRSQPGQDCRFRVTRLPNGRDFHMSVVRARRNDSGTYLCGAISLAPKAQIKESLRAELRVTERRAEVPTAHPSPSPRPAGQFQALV

[2] = target: T5, biotinylated PD1-ECD-AviHis (human, UniProt Q15116 25-170, biotinylated); assay: ELISA (hu PD1, as described above)
T5 construct: also called huPD1; hu PD1; not shown: Avi-His tag
T5 sequence (Q15116 25-170): as the sequence (B0LAJ3 entry or part of it limits assumed) above, with E2D, A10P, L19V, A35T, R75Q, A144T counted along it
Procedure: After washing (3×90 μl/well with PBST-buffer) 25 μl/well goat-anti-human H+L-POD (JIR, JIR109-036-088)/Sheep-anti-mouse-POD (GE Healthcare; NA9310) was added in 1:2000/1:1000 dilution and incubated at RT for 1 h on shaker. After washing (3×90 μl/well with PBST-buffer) 25 μl/well TMB substrate (Roche Catalogue No. 11835033001) was added and incubated until OD 2-3. Measurement took place at 370/492 nm.

hu PD1-ECD [3] = target: T6, hu PD1-ECD (human, UniProt Q15116 25-170); assay: SPR (Biacore T200), antibody captured by anti-human IgG, hu PD1-ECD as analyte, 25 °C, 1:1 Langmuir fit
T6 construct: SPR analyte; also called human PD1-ECD
T6 sequence (Q15116 25-170 limits assumed): as the sequence (B0LAJ3 entry or part of it limits assumed) above, with E2D, A10P, L19V, A35T, R75Q, A144T counted along it
Procedure: Therefore, an anti-human IgG was immobilized by amine coupling to the surface of a (Biacore) CM5 sensor chip. […] The sensor chip surface was regenerated after each analysis cycle. The equilibrium constant and kinetic rate constants were finally gained by fitting the data to a 1:1 langmuir interaction model.
(§1) The samples were injected for 20 seconds with a concentration of 10 nM and bound to the second flow cell.
Finally the double referenced data was fitted to a 1:1 Langmuir interaction model with the Biacore T200 Evaluation Software.

hu PD1-ECD [4] = target: T6, hu PD1-ECD; assay: SPR; row head 'Affinity KD 37° C.'; second of two numbers, equal to the 25 °C value of Table 3
[5] = target: T4, biotinylated cynoPD1-ECD-Biotin; assay: ELISA on cyno PD1; row head 'cynomolgus crossreactivity (EC50 [nm])'
[6] = target: T7, full-length human PD1 on cells (human, UniProt Q15116 25-288); assay: cell ELISA on CHO-K1 cells expressing full-length human PD1
T7 construct: also called CHO-PD1
T7 sequence (Q15116 25-288 limits assumed): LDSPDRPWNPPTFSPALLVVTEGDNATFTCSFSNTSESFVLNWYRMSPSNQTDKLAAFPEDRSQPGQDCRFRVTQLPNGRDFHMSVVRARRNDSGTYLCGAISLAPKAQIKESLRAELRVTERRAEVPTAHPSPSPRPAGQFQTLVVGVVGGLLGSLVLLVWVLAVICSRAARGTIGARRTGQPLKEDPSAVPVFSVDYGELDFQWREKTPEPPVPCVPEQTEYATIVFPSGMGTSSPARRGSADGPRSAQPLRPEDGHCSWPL
Procedure: (to avoid internalization). After washing carefully (1×90 μl/well PBST) cells were fixed by adding 30 μl/well 0.05% Glutaraldehyde (Sigma, Cat.No: G5882, 25%) diluted in 1×PBS-buffer and incubated for 10 min at RT. After washing (3×90 μl/well PBST) 25 μl/well secondary antibody was added for detection: goat-anti-human H+L-POD (JIR, JIR109-036-088)/Sheep-anti-mouse-POD (GE NA9310) followed by 1h incubation at RT on shaker. After washing (3×90 μl/well PBST) 25 μl/well TMB substrate solution (Roche 11835033001) was added and incubated until OD 1.0-2.0. Plates were measured at 370/492 nm.

hu PD1-ECD [7] = target: T6, hu PD1-ECD; assay: SPR; row head 'Affinity KD 37° C.'; first of two numbers
Procedure: as §1

[8] = target: T5, biotinylated PD1-ECD-AviHis; assay: ELISA on coated biotinylated PD1-ECD-AviHis
[9] = target: T1, LAG3 on cells (recombinant CHO cells …); assay: cell-based or functional assay
biotinylated-Lag3 = target: T2, biotinylated-Lag3; assay: ELISA, inhibition of biotinylated-Lag3 binding to MHC-II on A375 cells (competitor MHC-II)
Procedure: 25 μl/well of A375 cells (10000 cells/well) were seeded into tissue culture treated 384-well plates (Corning, 3701) and incubated at 37° C. overnight. […] After washing (1×90 μl in PBST) cells were fixed by addition of 30 μl/well glutaraldehyde to a final concentration of 0.05% (Sigma Cat.No: G5882), 10 min at room temperature. After washing (3×90 μl/well with PBST-buffer) 25 μl/well Poly-HRP40-Streptavidin (Fitzgerald, 65R-S104PHRPx) was added in a 1:2000 or 1:8000 dilution and incubated at RT for 1 h. After washing (3×90 μl/well with PBST-buffer) 25 μl/well TMB substrate (Roche, #11835033001) was added and incubated for 2 to 10 min. Measurement took place on a Tecan Safire 2 instrument at 370/492 nm.

[10] = target: PD1 on PD1+LAG3+ human U2OS cells (UniProt Q15116 25-288); assay: cellular PD1/LAG3 dimerization assay, 7500 PD1+LAG3+ U2OS cells a well, 20 h at 37 °C, chemoluminescence; the signal needs PD1 and LAG3 bound at once
Chain of PD1 on PD1+LAG3+ human U2OS cells (Q15116 25-288): as the sequence (Q15116 25-288 limits assumed) above
Procedure: Next, assay plates were equilibrated to room temperature and a substrate/buffer mix (PathHunterFlash detection reagent, Discoverx) was added and again incubated for 4h. For measuring chemoluminescence induced upon simultaneous binding and dimerization a SpectraMax L plate reader (Molecular Devices) was used.

[11] = target: T1, LAG3 on cells (recombinant CHO cells …); assay: cell-based or functional assay; remark: listed apart in the source
[12] = target: T7, full-length human PD1 on cells; assay: cell-based or functional assay

% positive cyno cells (PBLs) after CD3/CD28 activation (cynomolgus LAG3 on cells) [%] | EC50 [1] [µg/mL] | EC50 [2] [nM] | Kd (hu PD1-ECD [3]) [nM] | koff (hu PD1-ECD [3]) [s⁻¹] | kon (hu PD1-ECD [3]) [M⁻¹ s⁻¹] | Kd (hu PD1-ECD [4]) [nM] | EC50 [5] [nM] | EC50 [6] [µg/mL] | Kd (hu PD1-ECD [7]) [nM] | EC50 [8] [µg/mL] | Binder | also measured
18.6 |  |  |  |  |  |  |  |  |  |  | Reference LAG3 antibody BMS-986016 (antibody, V domains shown, also called aLAG3(BMS986016)) VH: QVQLQQWGAGLLKPSETLSLTCAVYGGSFSDYYWNWIRQPPGKGLEWIGEINHRGSTNSNPSLKSRVTLSLDTSKNQFSLKLRSVTAADTAVYYCAFGYSDYEYNWFDPWGQGTLVTVSS VL: EIVLTQSPATLSLSPGERATLSCRASQSISSYLAWYQQKPGQAPRLLIYDASNRATGIPARFSGSGSGTDFTLTISSLEPEDFAVYYCQQRSNWPLTFGQGTNLEIK | 
 | 0.0083 | 0.1 | 1.8 | 0.000345 | 195000 | 1.8 | 0.08 | 0.0101 | 1.5 | 0.011 | PD1-0103-0312 (antibody, human IgG1, V domains shown, Humanized; also called PD1-103-0312; PD-0103-0312) VH: EVQLLESGGGLVQPGGSLRLSCAASGFSFSSYTMSWVRQAPGKGLEWVATISGGGRDIYYPDSVKGRFTISRDNSKNTLYLQMNSLRAEDTAVYYCVLLTGRVYFALDSWGQGTLVTVSS VL: DIVMTQSPDSLAVSLGERATINCKASESVDTSDNSFIHWYQQKPGQSPKLLIYRSSTLESGVPDRFSGSGSGTDFTLTISSLQAEDVAVYYCQQNYDVPWTFGQGTKVEIK | 
 | 0.011 | 0.07 | 2.3 | 0.000367 | 160000 | 2.3 | 0.06 | 0.0108 | 1.9 | 0.015 | PD1-0103-0313 (antibody, human IgG1, V domains shown, Humanized; also called PD1-103-0313; PD-0103-0313) VH: EVQLLESGGGLVQPGGSLRLSCAASGFSFSSYTMSWVRQAPGKGLEWVATISGGGRDIYYPDSVKGRFTISRDNSKNTLYLQMNSLRAEDTAVYYCVLLTGRVYFALDSWGQGTLVTVSS VL: DVVMTQSPLSLPVTLGQPASISCRASESVDTSDNSFIHWYQQRPGQSPRLLIYRSSTLESGVPDRFSGSGSGTDFTLKISRVEAEDVGVYYCQQNYDVPWTFGQGTKVEIK | 
50.7 |  |  |  |  |  |  |  |  |  |  | humanized BAP050 (LAG525) (antibody, V domains shown, also called aLAG3(BAP050)) VH: QIQLVQSGPELKKPGETVKISCKASGFTLTNYGMNWVRQTPGKGLKWMGWINTDTGEPTYADDFKGRFAFSLETSASTASLQINNLKNADTATYFCARNPPYYYGTNNAEAMDYWGQGTTVTVSS VL: DIQMTQTTSSLSASLGDRVTISCSSSQDISNYLNWYQQKPDGTVKVLIYYTSTLHLGVPSRFSGSGSGTDYSLTISNLELEDIATYYCQQYYNLPWTFGQGTKVEIK | EC50 [nM] in Jurkat LAG3 + SED + Raji (NFAT luciferase), 2nd assay [9]: 22.6 nM; IC50 (biotinylated-Lag3): 1 nM
 |  |  |  |  |  |  |  |  |  |  | PD1/LAG3 0750 (bispecific antibody, human IgG1, kappa, L234A L235A, 2+1 trans format: one LAG3 Fab N-terminal, one fused to the C-terminus of the Fc hole chain; also called 1 + 2 trans) heavy 1: not shown heavy 2: EVQLLESGGGLVQPGGSLRLSCAASGFIFDDYTMNWVRQAPGKGLEWVAVISWDGGGTYYTDSVKGRFTISRDDFKNTLYLQMNSLRAEDTAVYYCAKGLTDTTLYGSDYWGQGTLVTVSSASTKGPSVFPLAPSSKSTSGGTAALGCLVEDYFPEPVTVSWNSGALTSGVHTFPAVLQSSGLYSLSSVVTVPSSSLGTQTYICNVNHKPSNTKVDEKVEPKSCDKTHTCPPCPAPEAAGGPSVFLFPPKPKDTLMISRTPEVTCVVVDVSHEDPEVKFNWYVDGVEVHNAKTKPREEQYNSTYRVVSVLTVLHQDWLNGKEYKCKVSNKALGAPIEKTISKAKGQPREPQVCTLPPSRDELTKNQVSLSCAVKGFYPSDIAVEWESNGQPENNYKTTPPVLDSDGSFFLVSKLTVDKSRWQQGNVFSCSVMHEALHNHYTQKSLSLSPGKGGGGSGGGGSEVQLLESGGGLVQPGGSLRLSCAASGFIFDDYTMNWVRQAPGKGLEWVAVISWDGGGTYYTDSVKGRFTISRDDFKNTLYLQMNSLRAEDTAVYYCAKGLTDTTLYGSDYWGQGTLVTVSSASTKGPSVFPLAPSSKSTSGGTAALGCLVEDYFPEPVTVSWNSGALTSGVHTFPAVLQSSGLYSLSSVVTVPSSSLGTQTYICNVNHKPSNTKVDEKVEPKSC light 1: EVQLLESGGGLVQPGGSLRLSCAASGFSFSSYTMSWVRQAPGKGLEWVATISGGGRDIYYPDSVKGRFTISRDNSKNTLYLQMNSLRAEDTAVYYCVLLTGRVYFALDSWGQGTLVTVSSASVAAPSVFIFPPSDEQLKSGTASVVCLLNNFYPREAKVQWKVDNALQSGNSQESVTEQDSKDSTYSLSSTLTLSKADYEKHKVYACEVTHQGLSSPVTKSFNRGEC light 2: not shown | EC50 (read off the curve) [10]: ~0.06 nM; EC50 [nM], PD-1 & LAG-3 combo reporter assay (NFAT luciferase) [11]: 0.6 nM; EC50 [nM], PD-1 & LAG-3 combo reporter assay (NFAT luciferase) [12]: 0.6 nM
